{"source": "paper PMC5676521", "proteins": {"B1": {"name": "PRMT7 (TbPRMT7) (Trypanosoma brucei brucei TREU927) (protein)", "chain": "MPPKQHRHQKKDKNDNALQNTIGFVPPGATLASVSGYRPPDAFVNRIDRNIPVPARLRHTPVSLIEAVNDFHYAMMNDEERNNFYYEVLKKHVTPETGVLEIGAGSGLLSLMAAKLGAKWVVAVEGSEELAKLARENIRANNMEHQVKVLHMMSTELKSKHLPEPPDVLLSEIFGTMMLGESALDYVVDVRNRLLKPTTKIIPQFGTQYAVPIECDALHRISSVSGWRDLDLKHMMTLQDTVSIVFAKHYGIRMNSVNFRRLSDPIELFRVDFSSSNRNDIPRRKHFDVVAKESGTAHAMLFYWKVTDDEFVMSTDPEDTVNNFPRDMQWGQALQLLDASNGPLPTPVVFTEGKNYNFECNFSGDRVILHMQLCPESGNGEMTECEGKTT"}}, "substrate": "C[S+](CC[C@H](N)C(=O)[O-])C[C@H]1O[C@@H](n2cnc3c(N)ncnc32)[C@H](O)[C@@H]1O", "assay": "purified protein", "conditions": "varied: cofactor", "data": [{"protein": "B1", "values": [{"measurement": "Km", "value": "1.1 ± 0.2", "unit": "µM"}, {"measurement": "kcat", "value": "22.3 ± 0.6", "unit": "h^–1"}]}]}
